Publication PMC4893494, “Identification and Characterization of Five BAHD Acyltransferases Involved in Hydroxycinnamoyl Ester Metabolism in Chicory” (Frontiers in Plant Science, 2016)

What was measured:
Test in all cases: HPLC-UV of product, Michaelis-Menten
Type in all cases: biochemical, Cichorium intybus
[1] = substrate: O=C(O)[C@]1(O)C[C@@H](O)[C@@H](O)[C@H](O)C1; conditions: acyl acceptor varied, saturating caffeoyl-CoA (800 μM), 50 mM phosphate pH 7.1, room temperature
Description: HPLC-UV of product, Michaelis-Menten on HQT1 (CiHQT1)

[2] = substrate: O=C(O)[C@]1(O)C[C@@H](O)[C@@H](O)[C@H](O)C1; conditions: acyl acceptor varied, saturating caffeoyl-CoA (800 μM), 50 mM phosphate pH 7.1, room temperature; remark: listed apart in the source
Description: HPLC-UV of product, Michaelis-Menten on HQT2 (CiHQT2)

[3] = substrate: O=C(O)C1=C[C@@H](O)[C@@H](O)[C@H](O)C1; conditions: acyl acceptor varied, saturating p-coumaroyl-CoA (800 μM), 50 mM phosphate pH 7.1, room temperature
Description: HPLC-UV of product, Michaelis-Menten on HCT1 (CiHCT1)

[4] = substrate: O=C(O)[C@]1(O)C[C@@H](O)[C@@H](O)[C@H](O)C1; conditions: acyl acceptor varied, saturating caffeoyl-CoA (800 μM), 50 mM phosphate pH 7.1, room temperature; remark: listed apart in the source
Description: HPLC-UV of product, Michaelis-Menten on HQT3 (CiHQT3)

B1: HQT1 (CiHQT1) (Cichorium intybus) (protein)
chain: MTNGAGSEKMKVTVKESVIVKPSKTTPIQRLWNSNIDLLVGRIHLLTIYFYRPNGSSDFFDSGVLKKALSDVLVSFFPMAGRLGKDGDGRVEINCNAEGVWFVEAEADCRIDDFGEITPSPELRRLAPTVDYSGDISSYPLFITQVTRFKCGGVSLGCGVHHTLSDGFSSLHFINTWSDVARGLSVAIPPFNDRTLLRARDPPTPMYDHVEYHPPPSLITPPENHKPPASTTILRLTLDQINDLKSKGKGDGSVYHSTFVIIAAHLWRSACKARGLSDDQPTKLYVATDGRSRLIPPLPSGYLGNVLFTTTPMAKSGEFKSESLADTARRIHNELARMDDQYMRSAIDYLELQSDLSALVRGPTYFASPNLNVNSWTRLPLYESDFGWGRPIFMGPASILYEGTIYIIPSPTDDRSLKLAVCLDSDHMSLFQKYLYDF
In the case of B1, the Km [1] is reported as 162 ± 34 µM, the Vmax [1] is reported as 6.78 µmol/min/mg and the Vmax/Km [1] is reported as 42000 µL/min/mg.

B2: HQT2 (CiHQT2) (Cichorium intybus) (protein)
chain: MGSDQKMMMNINIKKSSIIPPSETIPECPKQLWTSNLDLVVGRIHILTVYFYRPNGSANFFDPNVMKKALADVLVSFYPMAGRLDRDESGRIVINCNGEGVLFVEAESDSTLDDFGEFTPSPEFRRLTPTVDYSGDISSYPLFFAQVTHFKCGGVALGCGVFHTLSDGLSSLHFINTWSDMARGLSVAIPPFIERTLLRAREPPTPTHDHVEYHEPPSMSPTAQKPGSGSSTTMLKLTLDQLNTLKVKAKIESGQTHSTYEILAAHIWRCACKARGLPDDQLTKLYVATDGRSRLSPRLPPGYLGNVVFTATPVAKSGDLTSGSLSNTAKLIHTTLTKMDDDYLRSAIDYLESQKDLSALIRGPTYFASPNLNINAWTRLPVHDADFGYGRPIFMGPAQILYEGTVYVLPSPNNDRSVSLAVCLDANEQSLFEKFLYEL
B2 showed a Km [2] of 613 ± 53 µM, a Vmax [2] of 8.04 µmol/min/mg and a Vmax/Km [2] of 13200 µL/min/mg.

B3: HCT1 (CiHCT1) (Cichorium intybus) (protein)
chain: MKIEVRESTMVRPAEETPKINLWNSNVDLVVPNFHTPSVYFYRPNGATNFFDPKVMKDALSKALVPFYPMGGRLKRDEDGRIEIDCQGQGVLFVEAESDGMVDDFGDFAPTLELRKLIPAVDYSQGIESYPLLVLQVTYFKCGGVSLGVGMQHHAADGASGLHFINTWSDMARGLDLTIPPFIDRTLLRARDPPQPAFEHVEYQPAPQMKTTSKSTDEQPVPETAVAIFKLTRDQLNALKAKSKENGNTINYSSYEMLSGHVWRCVCKARNLPADQDTKLYIATDGRARLRPSLPPGYFGNVIFTTTPIAVAGELMSNPTWYAAGKIHDGLAKMDNDYLKSALDYLELQPDLKALVRGAHSFRCPNLGITSWARLPIHDADFGWGRPIFMGPGGIAYEGLSFVLPSPINDGSLSIAISLQAEHMKVFSKFLYDI
B3 showed a Km [3] of 320 ± 40 µM, a Vmax [3] of 14.2 µmol/min/mg and a Vmax/Km [3] of 44400 µL/min/mg.

B4: HQT3 (CiHQT3) (Cichorium intybus) (protein)
chain: MGSDHKTMKINIKQSSLVQPSKPTIPSNKKLWTSNLDLVVGRIHILTVYFYRPNGCSNFFDPVVMKKALADVLVSFYPFAGRLSRDQNGRLEINCNGEGVLFVEAESDSTLDDFGEFTPSPELRRLTPTVDYSGDISSYPLFFAQVTHFKCGGVGLGCGVFHTLADGLSSIHFINTWSDMTRGLSIAVPPFTDRTLLRARETPTPTFDHVEYHLPPTMNTTSQNPKSSRKPSTNMLKLTIDQLNALKTAAKNDGGNTAYSTYEILAAHLWRCACKARGLPNDQQTKLYVATDGRSRLSPQLPPGYLGNVVFTATPMAKSGDLTTQPLSNSASLIRSTLSKMDNEYLRSAIDYLEVQPDLSALIRGPSYFASPNLNINTWTRLPVHDADFGWGRPVFMGPAVILYEGTIYVLPSPNNDRSMSLAVCLDADEQPLFEKFLYEF
Protein B4 has a Km [4] of 318 ± 71 µM, a Vmax [4] of 9.9 µmol/min/mg and a Vmax/Km [4] of 31200 µL/min/mg.
